Assay results taken from US20240109962A1 (SPARX BIOSCIENCE, published 2024).
Substitutions are numbered along the chain they refer to. Blank lines part the entries; values can stand above or below the binder they belong to.

Key:
[1] = target: T1, human LILRB3 expressed on 293T cells (human, UniProt O75022 24-631); test: cell ELISA on fixed 293T transfectants, OD490
T1 construct: whole, on cells
Description: (§1) The cells were then immobilized with glutaraldehyde in the presence of 5% defatted milk at room temperature for 2 hours. An anti-LILRB2 antibody (2 μg/ml) was added to each well and incubated at room temperature for 2 hours. An HRP-labelled goat anti-mouse secondary antibody was then added into each well and incubated at room temperature for one hour. An HRP substrate, o-phenylenediamine dihydrochloride (OPD) was then added to each well. The plate was incubated at room temperature for 15 min to allow color development and OD₄₉₀ values were determined.

[2] = target: LILRB2 antigen of the ELISA of Table 5 (format not specified) (UniProt Q8N423 22-460, limits assumed); test: ELISA, antibody titration
[3] = target: T2, human LILRB1 expressed on 293T cells (human, UniProt Q8NHL6 24-650); test: cell ELISA on fixed 293T transfectants, antibody 2 µg/ml, OD490
T2 construct: whole, on cells
Description: as §1

[4] = target: T3, His-tagged human LILRB2 polypeptide (human, UniProt Q8N423 22-460); test: SPR, antibody on CM5 chip, His-LILRB2 analyte, 1:1 model
T3 construct: SPR analyte; also called His-tagged human LILBR2 polypeptide; not shown: His tag
Description: Surface plasmon resonance (SPR) was used to examine binding activities of exemplary anti-LILBR2 antibodies disclosed herein. Briefly, the anti-LILBR2 antibody was diluted in a coating buffer to a concentration of 30 μg/ml, loaded onto CM5 chips at 10 μl/min to allow coating of the antibody on the surface of the CM5 chip. […] Binding affinity was measured based on the 1:1 binding model.

[5] = target: T4, LILRB1-His; test: ELISA on recombinant His-tagged protein, OD450
T4 construct: also called His-tagged LILRB1; recombinant LILRB1 protein

[6] = target: T5, LILRB3-His; test: ELISA on recombinant His-tagged protein, OD450
T5 construct: also called His-tagged LILRB3; recombinant LILRB3 protein

[7] = target: T6, human LILRB2 expressed on cells (293T-LILRB2, CHO-K1-LILRB2) (human, UniProt Q8N423 22-597); test: flow cytometry, blockade of PE-HLA-G tetramer binding to 293T-huLILRB2 cells
T6 construct: whole, on cells; the cell line is named under assay; also called HEK293T-LILRB2
Description: Pre-experimentation was performed to determine parameters for this assay. […] The cells were washed twice and then analysed by flow cytometry. […] FIG. 3C.
A mouse IgG (mIgG) antibody was used as a negative control.

[8] = target: T2, human LILRB1 expressed on 293T cells; test: cell ELISA, 293T-LILRB1 cells, antibody 2 ug/ml
Description: as §1

[9] = target: T7, LILRB2-Fc fusion protein (human, UniProt Q8N423 22-460, limits assumed); test: ELISA, blockade of LILRB2-Fc binding to coated His-ANGPTL2
T7 construct: not shown: Fc
Description: His-tagged ANGPTL2 protein (1 μg/ml) was placed in a 96-well plate ([…]) and incubated at 4° C. overnight. Afterwards, LILRB2-Fc fusion protein at 0.25 mg/ml was incubated with the anti-LILRB2 antibody at various concentrations at room temperature for one hour and then added into the His-ANGPTL2 coated plate. The plate was placed in a shaker at 500 rpm for 2 hours at room temperature. HRP-labelled goat anti-human Fc antibody (1:10,000 dilution) was added to the plate (100 μl/well). After incubation at room temperature for 1 hour, TMB was added for color development.
Clones 11B12, 9B6, 9H6, and 14F1 were selected for dose-dependent blockade assays. A mouse IgG (mIgG) antibody was used as a negative control. […] The IC₅₀ values are around 1 nM. […] (ix) Exemplary Anti-LILBR2 Antibodies Enhanced TNFα Expression and Suppressed IL-10 Expression in LPS-Stimulated PBMCs

[10] = target: T6, human LILRB2 expressed on cells …; test: flow cytometry, blockade of PE-HLA-A2 tetramer binding to CHO-K1-huLILRB2 cells
Description: Pre-experimentation was performed to determine parameters for this assay. PE-labelled HLA-A2 tetramer at the concentration of 0.25 μg/ml and an anti-LILRB2 antibody at the concentration of 2.5 μg/ml were incubated with CHO-K1-huLILRB2 cells for 10 minutes. The cells were washed twice and then analysed by flow cytometry. […] FIG. 3A.
Clones 11B12, 9B6, and 9H6 were selected for dose-dependent blockade assays against HLA-A2 from binding to CHO-K1-huLILRB2 cells. A mouse IgG (mIgG) antibody was used as a negative control.

[11] = target: T6, human LILRB2 expressed on cells …; test: cell ELISA, 293T-LILRB2 cells, antibody 2 ug/ml
Description: as §1

[12] = target: T2, human LILRB1 expressed on 293T cells; test: flow cytometry on 293T transfectants, MFI
Method in brief: (§2)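 Cells fixed with glutaraldehyde in 5% defatted milk, RT 2 h, then stained with anti-LILRB2 antibody (5 μg/ml, RT 1 h) and Alexa Fluor goat anti-mouse secondary (1:2,000, RT 30′). After two PBS washes, mean fluorescence intensity was measured.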

[13] = target: T1, human LILRB3 expressed on 293T cells; test: flow cytometry on 293T transfectants, MFI
Method in brief: as §2

[14] = target: T1, human LILRB3 expressed on 293T cells; test: cell ELISA, 293T-LILRB3 cells, antibody 2 ug/ml
Description: as §1

[15] = target: T6, human LILRB2 expressed on cells …; test: flow cytometry, blockade of His-tagged HLA-G tetramer binding to 293T-LILRB2 cells; fit table under the graph
Description: Serial diluted humanized LILRB2 antibodies were then added to the mixture and incubated at room temperature for another 45 minutes. The binding of HLA-G/LILRB2 was detected afterwards using a secondary PE-labeled anti-His tag antibody via flow cytometry.

[16] = target: T6, human LILRB2 expressed on cells …; test: flow cytometry on 293T-LILRB2 cells, serial dilution, APC anti-human IgG; fit table under the graph
Source text: The cells were washed and then subject to flow cytometry to measure levels of fluorescent signals.

[17] = target: T2, human LILRB1 expressed on 293T cells; test: cell ELISA on fixed 293T transfectants, OD490
Description: as §1

T3 sequence (Q8N423 22-460 limits assumed): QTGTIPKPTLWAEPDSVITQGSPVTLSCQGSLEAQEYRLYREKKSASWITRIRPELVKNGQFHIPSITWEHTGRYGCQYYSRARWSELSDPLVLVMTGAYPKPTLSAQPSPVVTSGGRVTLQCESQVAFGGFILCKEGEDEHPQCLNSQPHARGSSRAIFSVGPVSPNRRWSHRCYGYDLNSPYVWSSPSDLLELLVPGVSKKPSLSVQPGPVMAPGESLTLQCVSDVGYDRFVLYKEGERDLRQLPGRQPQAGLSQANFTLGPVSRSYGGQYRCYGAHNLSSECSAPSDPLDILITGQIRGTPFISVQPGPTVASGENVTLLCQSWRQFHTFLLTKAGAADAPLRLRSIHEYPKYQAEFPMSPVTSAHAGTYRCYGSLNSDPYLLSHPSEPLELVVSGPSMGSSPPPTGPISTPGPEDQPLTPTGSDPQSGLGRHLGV
T7 sequence (Q8N423 22-460 limits assumed): as above
LILRB2 antigen of the ELISA of Table 5 (format not specified), sequence (Q8N423 22-460 limits assumed): as above
T6 sequence (Q8N423 22-597): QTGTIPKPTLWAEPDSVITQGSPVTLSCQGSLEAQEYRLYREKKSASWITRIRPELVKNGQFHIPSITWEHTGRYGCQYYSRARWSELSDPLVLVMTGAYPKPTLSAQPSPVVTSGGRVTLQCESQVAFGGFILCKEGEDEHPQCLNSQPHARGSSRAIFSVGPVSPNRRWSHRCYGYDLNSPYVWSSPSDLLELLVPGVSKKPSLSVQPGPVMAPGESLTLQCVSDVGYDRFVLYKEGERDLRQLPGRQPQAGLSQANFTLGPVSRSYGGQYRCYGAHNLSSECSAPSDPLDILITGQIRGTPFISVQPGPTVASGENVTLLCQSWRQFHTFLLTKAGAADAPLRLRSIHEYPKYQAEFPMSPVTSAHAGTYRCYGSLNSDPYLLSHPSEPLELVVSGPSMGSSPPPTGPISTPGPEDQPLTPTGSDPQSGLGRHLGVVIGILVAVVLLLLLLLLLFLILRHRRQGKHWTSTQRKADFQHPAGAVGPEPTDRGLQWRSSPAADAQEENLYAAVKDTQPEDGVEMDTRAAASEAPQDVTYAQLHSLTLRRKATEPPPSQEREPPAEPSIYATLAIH
T4 sequence (chain, as listed by the source limits assumed): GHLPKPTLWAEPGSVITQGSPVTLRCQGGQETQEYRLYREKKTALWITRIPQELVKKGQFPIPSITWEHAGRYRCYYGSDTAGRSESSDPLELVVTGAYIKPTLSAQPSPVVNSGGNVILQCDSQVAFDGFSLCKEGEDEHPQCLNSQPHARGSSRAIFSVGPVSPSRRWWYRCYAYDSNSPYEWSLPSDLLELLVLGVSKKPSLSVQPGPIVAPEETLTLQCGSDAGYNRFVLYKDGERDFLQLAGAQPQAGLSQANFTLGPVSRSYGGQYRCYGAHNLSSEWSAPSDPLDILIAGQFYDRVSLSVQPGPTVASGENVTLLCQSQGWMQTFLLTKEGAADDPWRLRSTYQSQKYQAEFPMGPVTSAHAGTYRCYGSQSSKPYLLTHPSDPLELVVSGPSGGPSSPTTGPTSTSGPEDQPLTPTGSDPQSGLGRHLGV
T2 sequence (Q8NHL6 24-650): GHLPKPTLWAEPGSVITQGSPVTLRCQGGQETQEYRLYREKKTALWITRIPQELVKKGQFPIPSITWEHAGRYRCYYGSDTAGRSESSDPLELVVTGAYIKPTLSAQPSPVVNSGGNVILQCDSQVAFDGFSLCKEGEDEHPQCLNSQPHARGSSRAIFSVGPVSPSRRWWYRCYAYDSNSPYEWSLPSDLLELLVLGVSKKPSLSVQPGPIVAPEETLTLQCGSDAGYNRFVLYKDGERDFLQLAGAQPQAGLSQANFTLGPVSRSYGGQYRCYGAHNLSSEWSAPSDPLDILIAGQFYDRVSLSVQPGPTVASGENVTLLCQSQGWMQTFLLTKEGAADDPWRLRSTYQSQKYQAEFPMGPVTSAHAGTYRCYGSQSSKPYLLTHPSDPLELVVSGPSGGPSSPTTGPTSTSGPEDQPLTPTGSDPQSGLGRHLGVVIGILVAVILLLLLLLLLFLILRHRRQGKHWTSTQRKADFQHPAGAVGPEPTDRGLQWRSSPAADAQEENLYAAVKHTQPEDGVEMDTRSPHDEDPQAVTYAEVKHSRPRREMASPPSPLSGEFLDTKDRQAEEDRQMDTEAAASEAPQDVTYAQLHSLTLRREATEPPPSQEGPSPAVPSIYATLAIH

- binding result [1]: no binding (tested: 2 µg/ml)
- Kd [2]: 2480 pM
- binding result [3]: binds
B1: Antibody 13D12 (antibody, V domains shown)
VH: EIQLQQSGPELVKPGASVKVSCKASGYAFTSHNIYWVKQSHGKSLEWIGYIDPYNGGSTYNQKFKDKATLTVDKSSSTAYMHLKSLTSEDSAVYYCARGDYRDFWGQGTTLTVSS
VL: DIQMTQTTSSLSASLGDRVTIRCSASQAINNYLNWYQQKPDGTVKLLIYYTSSLHSGVPSRFSGSGSGADYSLTISNLEPEDIATYYCQQYSHLPWTFGGGTTLEIK
notes: Mouse hybridoma mAb purified from ascites

- Kd [4]: 25.7 pM
- koff [4]: 4.72e-06 s⁻¹
- kon [4]: 183000 M⁻¹ s⁻¹
- binding result [5]: no binding
- binding result [6]: no binding
- IC50 [7]: 3120 pM
- OD490 [8]: 0.177 OD490
- Kd [2]: 1040 pM
- IC50 [9]: 945 pM
- IC50 [10]: 4970 pM
- OD490 [11]: 1.86 OD490
- binding result [12]: no binding (tested: 5 µg/ml)
- binding result [13]: no binding (tested: 5 µg/ml)
- OD490 [14]: 0.139 OD490
B2: Antibody 9H6 (antibody, V domains shown)
VH: EVQLQQSGAELVRPGALVKLSCKASGFNVKDYYMHWVKQRPEQGLEWIGWIDPKNGNGIYDPKFQGKASITADTSSNTAYLQLSSLTSEDTSVYYCARGDYFGSSYLFAYWGQGTLVTVSA
VL: DIVMTQSHKFMSTSVGDRVSITCKASQDVSTAVAWYQQKPGQSPKLLIYSASYRYTGVPDRFTGSGSGTDFTFTISSVQAEDLAVYYCQQHYSTPWTFGGGAKLEIK
notes: as for B1

- binding result [5]: no binding
- binding result [6]: no binding
- IC50 [7]: 820 pM
- OD490 [8]: 0.172 OD490
- Kd [2]: 1240 pM
- IC50 [9]: 942 pM
- OD490 [11]: 1.21 OD490
- binding result [12]: no binding (tested: 5 µg/ml)
- binding result [13]: no binding (tested: 5 µg/ml)
- OD490 [14]: 0.172 OD490
B3: Antibody 14F1 (antibody, V domains shown)
VH: QVQLKESGPGLVAPSQSLSITCTVSGFSLTTYGVHWVRQPPGKGLEWLGVIWTGGSTNYNSALMSRLSIIKDNSKSQVFLKMNSLQTDDTAIYYCARGGYGHTMDYWGQGTSVTVSS
VL: B2 VL with T31I, S43F, S65G, W96F, G100S, A102T
notes: as for B1

- IC50 [15]: 318 pM
- Kd [16]: 242 pM
B4: Antibody h#12a (antibody, V domains shown)
VH: EVQLVESGGGLVQPGGSLRLSCAASGFTFSNFGMHWVRQAPGKGLEWVAYISSGSGTIYYSDTVRGRFTISRDDSKNTLYLQMNSLRAEDTAVYYCARSDYDGDWFFDVWGQGTLVTVSS
VL: DIQMTQSPSSLSASVGDRVTITCKASQDVTTAVAWYQQKPGKAPKLLIYSASFRYTGVPSRFSGSGSGTDFTLTISSLQPEDFATYYCQQHFTTPLTFGQGTKVEIK
notes: Humanized variant of 9B6

- Kd [4]: 1070 pM
- koff [4]: 0.000864 s⁻¹
- kon [4]: 809000 M⁻¹ s⁻¹
- binding result [5]: no binding
- binding result [6]: no binding
- IC50 [7]: 618 pM
- OD490 [8]: 0.121 OD490
- Kd [2]: 943 pM
- IC50 [9]: 1010 pM
- IC50 [10]: 340 pM
- OD490 [11]: 1.43 OD490
- binding result [12]: no binding (tested: 5 µg/ml)
- binding result [13]: no binding (tested: 5 µg/ml)
- OD490 [14]: 0.126 OD490
B5: Antibody 9B6 (antibody, V domains shown)
VH: DVQLVESGGGLVQPGWSRILSCAASGFTFSNFGMHWVRQAPEKGLEWVAYISSGSGTIYYSDTVRGRFTISRDNPKNTLFLLMTSLRSEDTAMYYCTRSDYDGDWFFDVWGAGTTVTVSS
VL: DIVMTQSHRFLSTSVGDRVTITCKASQDVTTAVAWCQQKPGQSPKLLIYSASFRYTGVPDRFTGSGSGTDFTFTINNVQAEDLALYYCQQHFTTPLTFGAGTKLELK
notes: as for B1

- binding result [17]: no binding (tested: 2 µg/ml)
- binding result [1]: no binding (tested: 2 µg/ml)
- Kd [4]: 353 pM
- koff [4]: 0.00032 s⁻¹
- kon [4]: 905000 M⁻¹ s⁻¹
- binding result [6]: no binding
- IC50 [7]: 857 pM
- Kd [2]: 3200 pM
- IC50 [9]: 1000 pM
- IC50 [10]: 475 pM
B6: Antibody 11B12 (antibody, V domains shown)
VH: DVQLQESGPGLVKPSQSLSLTCSVTGYSITSGYYWNWIRQFPGNKLEWMGYISYDGNNNYNPSLKNRISITRDTSKNQFFLKLNSVTTEDTATYYCAREESTMITTAWFAYWGQGTLVTVSA
VL: DIQMTQSPASLSVSVGETVTITCRASENIYSNLAWYQQKQGKSPQLLVYGATNLADGVPSRFSGSGSGTQYSLKINSLQSEDFGSYFCQHFWDTPYTFGGGTKLEIK
notes: as for B1
